From patent US20190376053A1

Tests used:
[1] = target: collagen fibril (porcine skin fiber, Nippi, Inc) (porcine); test: collagen fibril binding assay (spin column, SDS-PAGE of the unbound protein, Scatchard plot)
[2] = target: mini-collagen peptide H-Gly-Pro-Arg-Gly-(Pro-Hyp-Gly)12-NH2; test: SPR (Biacore), peptide immobilized, equilibrium fit, apparent KD
[3] = target: mini-collagen peptide H-Gly-Pro-Arg-Gly-(Pro-Hyp-Gly)12-NH2; test: SPR (Biacore); ratio of KD, ColHS2bS3 = 1.00

Substance | Kd [1] [µM] | Kd [2] [µM] | Ratio [3]
collagen-binding domain s3a derived from Clostridium histolyticum class I collagenase ColG (from UniProt Q9X721 886-1003) | 100 | – | –
collagen-binding domain s3b derived from Clostridium histolyticum class I collagenase ColG (from UniProt Q9X721 1003-1118) | – | 45.4 | 0.102
tandem collagen-binding domain (s3a-s3b) derived from Clostridium histolyticum class I collagenase ColG (from UniProt Q9X721 886-1118) | – | 44.6 | 0.1
